Data: patent US20230265183A1 (MABWELL SHANGHAI BIOSCIENCE, published 2023)
Numbering of substitutions follows the chain as printed. “And” between values parts separate entries of the source, which are not always exact repeats. Equal values may be shown once.

T1: human Nectin-4 (human, UniProt Q96NY8 32-510)
T1 construct: whole, on cells; Cell-surface target of the FACS, endocytosis and proliferation assays (CHO-huNectin4 S8 cells, BT474 cells); the assay field says which cells; also called huNectin4; PVRL4
T1 sequence (looked up): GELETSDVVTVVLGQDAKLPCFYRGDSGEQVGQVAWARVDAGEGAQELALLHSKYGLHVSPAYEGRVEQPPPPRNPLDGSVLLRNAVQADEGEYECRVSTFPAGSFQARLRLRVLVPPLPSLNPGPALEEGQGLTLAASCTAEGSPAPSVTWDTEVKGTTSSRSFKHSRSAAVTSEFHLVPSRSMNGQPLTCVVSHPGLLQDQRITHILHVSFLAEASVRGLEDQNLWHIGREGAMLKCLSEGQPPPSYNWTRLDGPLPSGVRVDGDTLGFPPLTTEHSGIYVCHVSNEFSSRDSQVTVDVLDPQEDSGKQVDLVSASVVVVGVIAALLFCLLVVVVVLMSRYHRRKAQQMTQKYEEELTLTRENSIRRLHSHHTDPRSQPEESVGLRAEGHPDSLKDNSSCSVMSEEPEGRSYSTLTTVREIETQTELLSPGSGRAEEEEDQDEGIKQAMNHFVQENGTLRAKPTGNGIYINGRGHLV

B1: Enfortumab-E (antibody, human IgG1, kappa, V domains shown)
VH: EVQLVESGGGLVQPGGSLRLSCAASGFTFSSYNMNWVRQAPGKGLEWVSYISSSSSTIYYADSVKGRFTISRDNAKNSLSLQMNSLRDEDTAVYYCARAYYYGMDVWGQGTTVTVSS
VL: DIQMTQSPSSVSASVGDRVTITCRASQGISGWLAWYQQKPGKAPKFLIYAASTLQSGVPSRFSGSGSGTDFTLTISSLQPEDFATYYCQQANSFPPTFGGGTKVEIKR
modifications: vcMMAE conjugated to the TECP-reduced antibody; residues not stated; DAR 4.0±1
B2: 42D20 hz44-E (antibody, V domains shown)
VH: QVQLQESGPGLVKPSETLSLTCTVSGFSLIDYGVSWIRQPPGKGLEWIGVIWGDAKIYYNSVLKSRVTISKDNSKSQVSLKLSSVTAADTAVYYCAKQGGLLFYAMDYWGQGTLVTVSS
VL: DIVMTQSPDSLAVSLGERATINCKSSQSLLNKYSQKNYLAWYQQKPGQPPKLLIYFASTRESGVPDRFSGSGSGTDFTLTISSLQAEDVAVYYCQQHYNTPFTFGAGTKLELKR
modifications: vcMMAE conjugated to the TECP-reduced antibody; residues not stated; DAR 4.0±1
B3: 42D20 hz64-E (antibody, V domains shown)
VH: B2 VH with D54G, A55G
VL: B2 VL
modifications: vcMMAE conjugated to the TECP-reduced antibody; residues not stated; DAR 4.0±1
B4: 42D20 hz63-E (antibody, V domains shown)
VH: B2 VH with D54G, A55G
VL: B2 VL with K32T, P49S, G74E, V89L, Y93F
modifications: vcMMAE conjugated to the TECP-reduced antibody; residues not stated; DAR 4.0±1
B5: 42D20 hz43-E (antibody, V domains shown)
VH: B2 VH
VL: B2 VL with K32T, P49S, G74E, V89L, Y93F
modifications: vcMMAE conjugated to the TECP-reduced antibody; residues not stated; DAR 4.0±1
B6: 42D20 hz10-E (antibody, V domains shown)
VH: B2 VH with A55G
VL: B2 VL with K32S
modifications: vcMMAE conjugated to the TECP-reduced antibody; residues not stated; DAR 4.0±1
B7: 20M12 hz01-E (antibody, human IgG1, kappa, V domains shown)
VH: QVQLVQSGAEVKKPGASVKVSCKASGYTFTSYYIHWVRQAPGQRLEWMGWIYPGNANNKYNENFKGRVTITRDTSASTAYMELSSLRSEDTAVYYCARSVYYFDYWGQGTLVTVSS
VL: EVVMTQSPATLSVSPGERATLSCKASQSVSNDVAWYQQKPGQAPRLLIYYASNRNTGIPARFSGSGSGTEFTLTISSLQSEDLAVYFCQQDYSSPYTFGGGTKVEIKR
modifications: vcMMAE conjugated to the TECP-reduced antibody; residues not stated; DAR 4.0±1
B8: 20M12 hz11-E (antibody, human IgG1, kappa, V domains shown)
VH: B7 VH with R72A, T74K
VL: B7 VL
modifications: vcMMAE conjugated to the TECP-reduced antibody; residues not stated; DAR 4.0±1
B9: 20M12 xiIgG-E (antibody, V domains shown)
VH: QVQLQQSGPELVKPGASVRISCKASGYTFTSYYIHWVKQRPGQGLEWIGWIYPGNANNKYNENFKGKATLTADKSSSTAYMQLSSLTSEDSAVYFCARSVYYFDYWGQGTTLTVSS
VL: SVVMTQTPKFLLVSAGDRVTITCKASQSVSNDVAWYQQKPGQSPKLLIYYASNRNTGVPDRFTGSGYGTDFTFNISTVQAEDLAVYFCQQDYSSPYTFGGGTKLEIKR
modifications: vcMMAE conjugated to the TECP-reduced antibody; residues not stated; DAR 4.0±1
B10: 42D20 hz00 (antibody, V domains shown)
VH: B2 VH with A55G, K71V, N73T, S76N, V78F, K97R
VL: B2 VL with K32S
notes: Humanized
B11: 42D20 hz01 (antibody, V domains shown)
VH: B2 VH with A55G, K71V, N73T, S76N, V78F, K97R
VL: B2 VL with K32S, P49S, G74E, V89L, Y93F
notes: Humanized
B12: 42D20 hz02 (antibody, V domains shown)
VH: B2 VH with A55G, K71V, N73T, S76N, V78F, K97R
VL: B2 VL with N31Y, K32S, P49S, G74E, V89L, Y93F
notes: Humanized
B13: 42D20 hz20 (antibody, V domains shown)
VH: B2 VH with D54E, A55G
VL: B2 VL with K32S
B14: mIgG 42D20-E (antibody, V domains shown)
VH: QVQLKESGPGLVAPSQSLSISCTVSGFSLIDYGVSWIRQPPGKGLEWLGVIWGDGKIYYNSVLKSRLSISKDNSKSQVFLKMNSLQTDDTAMYYCAKQGGLLFYAMDYWGQGTSVTVSS
VL: DIVMTQSPSSLAMSVGQRVTMNCKSSQSLLNSYSQKNYLAWYQQKPGQSPKLLIYFASTRESGVPDRFIGSGSETDFTLTISSVQAEDLADYFCQQHYNTPFTFGSGTKLEIK
B15: 5M21 hz11-E (antibody, human IgG1, kappa, V domains shown)
VH: B7 VH with S31T, A56V, N58T, N63K, R72A, T74K, S99G, V100L
VL: DIQMTQSPSSLSASVGDRVTITCKASQSVSNDVAWYQQKPGKVPKLLIYYASNRYTGVPSRFSGSGSGTDFTLTISSLQPEDLATYFCQQDYSSPYTFGGGTKVEIKR
modifications: vcMMAE conjugated to the TECP-reduced antibody; residues not stated; DAR 4.0±1
B16: 5M21 hz10-E (antibody, human IgG1, kappa, V domains shown)
VH: B7 VH with S31T, A56V, N58T, N63K, R72A, T74K, S99G, V100L
VL: B15 VL with L83V, F87Y
modifications: vcMMAE conjugated to the TECP-reduced antibody; residues not stated; DAR 4.0±1
B17: mIgG 5M21-E (antibody, V domains shown)
VH: B9 VH with S21T, S31T, A56V, N58T, N63K, S99G, V100L
VL: SIVMTQTPKFLLVSAGDRLTITCKASQSVSNDVAWYQQKPGQSPKLLIYYASNRYTGVPDRFTGSGYGTDFTFTISTVQAEDLAVYFCQQDYSSPYTFGGGTKLEIK

Target: T1, human Nectin-4
Test: FACS on BT474 cells
Procedure: (§1) The solutions of different concentrations were added to 384-well plates, 10 µl per well.
(§2) BT474 cells (breast cancer cells) expressing Nectin-4 on the cell surface were collected by centrifugation at 100 g at room temperature for 5 minutes, and then the cells were washed with PBS containing 0.5% BSA once and were centrifuged at 100 g at room temperature for 5 minutes. […] After incubation at 4° C. for 1 hour, fluorescently labeled goat anti-human IgG secondary antibody was added. After continued incubation at 4° C. for 1 hour, mean fluorescence readings of the cell populations were analyzed by a flow cytometer.

Row | EC50 [µg/mL] | Binder
1 | 0.23 | B1
2 | 0.504 | B2
3 | 0.373 | B3
4 | 0.299 | B4
5 | 0.43 | B5
6 | 0.307 | B6
7 | 0.42 | B7
8 | 0.232 | B8
9 | 0.227 | B9

Target: T1, human Nectin-4
Test: cell-based or functional assay

Row | Endocytosis efficiency (%) | Binder
10 | 58.9 | B1
11 | 71.1 | B2
12 | 66.6 | B3
13 | 67.9 | B4
14 | 68.9 | B5
15 | 74 | B6
16 | 56.6 | B7
17 | 58.4 | B8
18 | 67 | B9

Target: T1, human Nectin-4
Test: FACS on BT474 cells
Remark: another data set of the same source
Procedure: as §1, §2
The experiment results of the binding of engineered humanized molecules of the present disclosure to BT474 cells by FACS assay are shown in panels 3B and 3C in FIG. 3 and Tables 6 and 7.

Row | EC50 [µg/mL] | Binder
19 | 1.34 | B10
20 | 0.132 | B11
21 | 0.112 | B12

Target: T1, human Nectin-4
Test: cell-based or functional assay
Remark: another data set of the same source

Row | EC50 (ng/ml), inhibition of proliferation of BT474 cells | Binder | Percentage of cell killing at the highest concentration [%]
22 | 2.26 ng/mL and 3.86 ng/mL and 2.91 ng/mL and 3.17 ng/mL | B1 | 
23 | 3.61 ng/mL | B2 | 42.7
24 | 4.58 ng/mL | B3 | 40.9
25 | 2.42 ng/mL | B4 | 47
26 | 6.31 ng/mL | B5 | 42.5
27 | 9.41 ng/mL | B6 | 40.8
28 | 24.2 ng/mL | B7 | 32.2
29 | 31.6 ng/mL | B8 | 38.3
30 | 14.8 ng/mL | B9 | 41.4

Target: T1, human Nectin-4
Test: cell-based or functional assay
Remark: another data set of the same source

Row | Endocytosis efficiency (%) | Binder
31 | 39.1 | B10
32 | 41.5 | B11
33 | 42 | B13

Target: T1, human Nectin-4
Test: cell-based or functional assay
Remark: another data set of the same source

Row | EC50 (ng/ml), inhibition of proliferation of BT474 cells | Binder | Percentage of cell killing at the highest concentration [%]
34 | 4.64 ng/mL | B14 | 33.5
35 | 5.37 ng/mL and 3.95 ng/mL and 5.11 ng/mL and 5.3 ng/mL | B1 | 
36 | 2.61 ng/mL | B6 | 33.7
37 |  | B15 | 38.5
38 | 21.1 ng/mL | B16 | 29.4
39 | 3.21 ng/mL | B17 | 36
